Where a chain is given by its changes, count along the chain named.
B1: 50-0704C (antibody, IgG2b, V domains shown)
VH: EVQLVGSGGGLVQPGRSMKLSCEASGFTFSNHYMAWVRQAPTKGLEWVATISTGGGNTYYRDSVKGRFTISRDNARSTLSLQMDSLRSEDTATYYCARQDYSNYMGGFAYWGQGTLVTVSS
VL: QFVLTQPNSVSTNLGSTVKLSCTRSIGNIGNNYVNWYKQYEGRSPTTMIYRDDERPDGVPDRFSGSIDRSSNSALLTINSVQTEDEADYFCQSFSSGIFIFGGGTKLTVL
B2: 18-0211B (antibody, IgG2b, V domains shown)
VH: B1 VH with E1A, K43R, A75T, A97T, S102T
VL: B1 VL with M48L, E86G, K106T
B3: 89-1207D (antibody, IgG2b, V domains shown)
VH: B1 VH with T78I
VL: B1 VL with S80N, I98M
B4: 37-0511F (antibody, IgG2b, V domains shown)
VH: EVHLQQSGAALVRPRASVKLSCKVSGDSISRYYVHFVKQRPGQGLEWIGRIDPEDDTTKYSEKFKNRATLTADASSDTASLILSGLTSDDTATYFCSTLTGLDYWGQGVMVTVSS
VL: DIQMTQSPPVLSTSVGDRVTLRCKPSQNVHSKLDWYQQKHGEAPKLLIYYTHNLQTGIPSRFSGSGSGTDYTLTISSLQPEDVATYYCFQYYSGWTFGGGTKLEMKR
B5: 53-0707E (antibody, IgG2b, V domains shown)
VH: B4 VH with H3Q, A10E, A16T, S30T, N66K, R67K, D77N, S80Y, L83F, D89E
VL: B4 VL with P25A
B6: 64-0807A (antibody, IgG2b, V domains shown)
VH: EVQVVESGGGLVQPGRSMKLSCAALGFTFRDYYMAWVRQTPTKGLEWVAAISTGGGNTYYRDSVKGRFTISRDNAKSTLYLQMDSLRSDDTATYYCARNPYGNYFDYWGQGVMVTVSS
VL: QFVLSQPNSVSTNLGSTVKLSCKRSTGNIGSNYVHWYQRHEGRSPTTLIYRDDKRPNGVPDRFSGSIDRSSNSALLTINNVQTEDEADYFCQSYSGGMYLFGGGTKLTVL
B7: 84-1111F (antibody, IgG2b, V domains shown)
VH: B6 VH with Q82K
VL: B6 VL with L48M, K106T
B8: 65-0810G (antibody, IgG2b, V domains shown)
VH: EVHLVESGGGLVQPGRSMKLSCTASGFTFNNYYMAWVRQAPTKGLEWVASISTGGGYTYYRDSVKGRFTISRDNTGNTLYLQMDSLRSEDTATYYCARCWELPYWGQGVMVTVSS
VL: QFVLTQPNSVSTNLGSTVKLSCRRSSGNIGNNYVNWYRQHEGRSPTTMIYRDDTRPDGVPNRFSGSIDRSSNSALLTINNVRPEDEAYYFCQSYSGSIYIFGGGTKLTVL
B9: 80-1104A (antibody, IgG2b, V domains shown)
VH: EVQLVETGGGLVQPGSSLKLSCSTSGFTFSETWMSWVRQAPGKGLEWVGLIKDKNSNYEANYAESVKGRFTISRDDSKRRVYLQMYTLRDQDTATYYCTSHEDFYYYSSYYFDYWGQGVMVTVSS
VL: DIVLTQSPATLSVTPGESVSLSCRASQGISTSIHWYQQKSNESPRLLIKYASQSMSGIPSRFSGSGSGTDFTLRINRVESEDFSVYYCQQSYNLPLTFGSGTKLEIKR
B10: 93-1310F (antibody, IgG2b, V domains shown)
VH: B9 VH with S23A, E31D, G49A, Y86F, Q117H
VL: B9 VL with E42G, M55I, S91T, N93S, K103R
B11: 83-1110B (antibody, IgG2b, V domains shown)
VH: EVQLQQSGPEFVRPGTSVKFSCKVSGGSITSYFIHFVKQRPGQGLEWIGKIDPEDDSTKYGEKFKNKATLTADTSSNTAFLKLSSLTSEDTAIYFCTTLTGLDYWGQGVMVTVSS
VL: DIQMTQSPPVLSAAVGDRVTLSCKASRSLNKNLDWYQQKHGETPKLLIYHTHNLQTGIPSRFSGSGSDTDYTLTISSLQTEDVATYYCYQYHSGWTFGGGTRLELRR
B12: 96-1403F (antibody, IgG2b, V domains shown)
VH: B9 VH with Q13R, S23A, E31D, G49A, Y58S, V66I, R79S, Y86N, S100R, S109G
VL: B9 VL with A9P, K39R, M55I, S56A, T72I, R74S, S91T, N93S, S100P, I106V

Biological target: T1, Mutant 2 of human SPNS2 (FLAG tag inserted in extracellular loop 5) (human, UniProt Q8IVW8 1-549)
T1 construct: on HEK293 cells; also called extracellular loop 5 mutant
T1 sequence: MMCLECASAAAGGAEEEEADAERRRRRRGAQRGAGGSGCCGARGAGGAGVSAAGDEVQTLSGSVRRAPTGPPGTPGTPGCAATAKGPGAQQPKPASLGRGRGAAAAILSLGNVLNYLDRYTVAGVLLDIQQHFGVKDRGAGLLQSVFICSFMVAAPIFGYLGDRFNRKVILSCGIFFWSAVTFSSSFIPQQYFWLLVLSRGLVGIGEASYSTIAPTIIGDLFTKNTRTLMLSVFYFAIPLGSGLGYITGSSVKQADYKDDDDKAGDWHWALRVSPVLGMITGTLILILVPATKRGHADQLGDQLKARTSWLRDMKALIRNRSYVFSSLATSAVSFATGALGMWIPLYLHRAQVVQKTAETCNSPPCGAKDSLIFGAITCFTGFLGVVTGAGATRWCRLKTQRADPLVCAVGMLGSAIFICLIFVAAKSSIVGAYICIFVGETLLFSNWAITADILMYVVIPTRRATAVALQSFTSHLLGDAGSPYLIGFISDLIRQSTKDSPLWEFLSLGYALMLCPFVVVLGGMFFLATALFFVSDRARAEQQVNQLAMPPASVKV
Assay: flow cytometry, FLAG-insertion mutant
Method: (§1) After the lipofection, the HEK 293 cells cultivated overnight were recovered from the culture dishes, and reacted with a cell staining buffer (BioLegend, 420201) containing an anti-FLAG antibody (Sigma-Aldrich, F1804) and an anti-SPNS2 antibody each in a volume of 20 μg/mL for 30 minutes at room temperature. After washing with a cell staining buffer one time, the anti-FLAG antibody was detected with an anti-mouse IgG-Alexa 647 conjugate antibody, and the anti-SPNS2 antibody was detected with an anti-rat IgG-FITC conjugate antibody with flow cytometer BD LSR Fortessa (Becton Dickinson). The binding ability to each mutant was evaluated with the ratio of the FITC-positive cell rate to the Alexa 647-positive cell rate. In Table 7, symbol (+) indicates a ratio of less than 0.1, symbol (±) indicates a ratio of 0.1 or more and less than 0.5, and symbol (−) indicate a ratio of 0.5 or more.

Binder | FITC+/Alexa 647+ cell rate ratio
B1 | < 0.1 ratio
B2 | < 0.1 ratio
B3 | < 0.1 ratio
B4 | < 0.1 ratio
B5 | < 0.1 ratio
B6 | < 0.1 ratio
B7 | < 0.1 ratio
B8 | < 0.1 ratio
B9 | ≥ 0.5 ratio
B10 | ≥ 0.5 ratio
B11 | < 0.1 ratio

Biological target: T2, Mutant 1 of human SPNS2 (FLAG tag inserted in extracellular loop 1) (human, UniProt Q8IVW8 1-549)
T2 construct: on HEK293 cells; also called extracellular loop 1 mutant
T2 sequence: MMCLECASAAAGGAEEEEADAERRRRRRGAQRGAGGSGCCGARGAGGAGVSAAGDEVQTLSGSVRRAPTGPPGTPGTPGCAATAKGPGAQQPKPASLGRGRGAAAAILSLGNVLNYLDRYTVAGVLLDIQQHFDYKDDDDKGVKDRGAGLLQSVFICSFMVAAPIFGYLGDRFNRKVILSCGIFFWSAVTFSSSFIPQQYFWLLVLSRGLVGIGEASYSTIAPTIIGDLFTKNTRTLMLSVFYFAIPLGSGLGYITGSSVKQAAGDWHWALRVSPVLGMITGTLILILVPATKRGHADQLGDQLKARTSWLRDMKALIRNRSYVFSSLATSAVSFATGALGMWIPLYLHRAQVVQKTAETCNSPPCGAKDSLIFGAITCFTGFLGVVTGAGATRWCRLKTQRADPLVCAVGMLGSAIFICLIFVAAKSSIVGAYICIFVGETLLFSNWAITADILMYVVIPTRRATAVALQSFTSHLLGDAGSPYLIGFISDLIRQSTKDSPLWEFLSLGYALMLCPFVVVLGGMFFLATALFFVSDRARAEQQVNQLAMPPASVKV
Assay: flow cytometry, FLAG-insertion mutant
Method: as §1

Binder | FITC+/Alexa 647+ cell rate ratio
B1 | < 0.1 ratio
B2 | < 0.1 ratio
B3 | < 0.1 ratio
B4 | < 0.1 ratio
B5 | < 0.1 ratio
B6 | < 0.1 ratio
B7 | < 0.1 ratio
B8 | < 0.1 ratio
B9 | < 0.1 ratio
B10 | < 0.1 ratio
B11 | < 0.1 ratio
B12 | < 0.1 ratio

Biological target: T3, Mutant 4 of human SPNS2 (FLAG tag inserted in extracellular loop 11) (human, UniProt Q8IVW8 1-549)
T3 construct: on HEK293 cells; also called extracellular loop 11 mutant
T3 sequence: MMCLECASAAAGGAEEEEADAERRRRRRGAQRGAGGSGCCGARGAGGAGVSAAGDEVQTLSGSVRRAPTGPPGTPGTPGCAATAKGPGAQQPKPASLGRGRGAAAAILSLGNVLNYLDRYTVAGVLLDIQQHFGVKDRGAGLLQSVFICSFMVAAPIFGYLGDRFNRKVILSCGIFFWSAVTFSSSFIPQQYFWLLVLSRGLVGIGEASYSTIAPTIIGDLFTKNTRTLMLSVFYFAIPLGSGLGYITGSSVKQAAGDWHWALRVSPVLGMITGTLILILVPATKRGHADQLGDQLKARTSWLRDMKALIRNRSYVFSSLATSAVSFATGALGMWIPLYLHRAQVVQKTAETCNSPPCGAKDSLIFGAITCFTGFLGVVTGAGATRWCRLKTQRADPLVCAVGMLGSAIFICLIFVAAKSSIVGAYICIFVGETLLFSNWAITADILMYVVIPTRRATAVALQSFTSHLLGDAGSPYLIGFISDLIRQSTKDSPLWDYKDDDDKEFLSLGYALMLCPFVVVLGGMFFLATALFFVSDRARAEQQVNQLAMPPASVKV
Assay: flow cytometry, FLAG-insertion mutant
Method: as §1

Binder | FITC+/Alexa 647+ cell rate ratio
B1 | ≥ 0.5 ratio
B2 | ≥ 0.5 ratio
B3 | ≥ 0.5 ratio
B4 | ≥ 0.5 ratio
B5 | ≥ 0.5 ratio
B6 | ≥ 0.5 ratio
B7 | ≥ 0.5 ratio
B8 | ≥ 0.5 ratio
B9 | ≥ 0.5 ratio
B10 | ≥ 0.5 ratio
B11 | ≥ 0.5 ratio
B12 | ≥ 0.5 ratio

Biological target: T4, Mutant 3 of human SPNS2 (FLAG tag inserted in extracellular loop 7) (human, UniProt Q8IVW8 1-549)
T4 construct: on HEK293 cells; also called extracellular loop 7 mutant
T4 sequence: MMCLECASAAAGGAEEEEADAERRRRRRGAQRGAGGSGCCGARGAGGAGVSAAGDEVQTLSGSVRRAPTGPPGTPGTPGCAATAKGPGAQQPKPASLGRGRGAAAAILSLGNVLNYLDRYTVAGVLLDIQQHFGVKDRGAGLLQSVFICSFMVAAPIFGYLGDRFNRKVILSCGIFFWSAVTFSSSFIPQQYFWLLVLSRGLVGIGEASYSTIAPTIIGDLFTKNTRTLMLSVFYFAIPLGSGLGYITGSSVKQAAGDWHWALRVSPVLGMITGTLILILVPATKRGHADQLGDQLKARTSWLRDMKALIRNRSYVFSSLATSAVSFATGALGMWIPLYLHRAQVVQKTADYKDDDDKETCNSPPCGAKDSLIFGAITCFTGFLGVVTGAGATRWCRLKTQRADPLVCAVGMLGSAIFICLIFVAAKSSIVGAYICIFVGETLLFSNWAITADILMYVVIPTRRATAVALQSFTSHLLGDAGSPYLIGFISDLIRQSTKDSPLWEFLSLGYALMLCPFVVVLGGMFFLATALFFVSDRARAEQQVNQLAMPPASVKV
Assay: flow cytometry, FLAG-insertion mutant
Method: as §1

Binder | FITC+/Alexa 647+ cell rate ratio
B1 | ≥ 0.5 ratio
B2 | ≥ 0.5 ratio
B3 | ≥ 0.5 ratio
B6 | ≥ 0.5 ratio
B7 | ≥ 0.5 ratio
B8 | ≥ 0.5 ratio
B9 | ≥ 0.5 ratio
B10 | ≥ 0.5 ratio
B11 | ≥ 0.5 ratio
B12 | ≥ 0.5 ratio

Source: patent US20210147523A1 (TEIJIN PHARMA, published 2021)
